The results in this text go back to article PMC4818781 (EMBO Reports, 2016).

Series [1] deals with the molecule itself. Kind of series: SEC-MALS; room temperature; 100 μl of protein at 1 mg/ml; 50 mM HEPES pH 8, 50 mM NaCl, 5 mM DTT.
Series [2] concerns the molecule itself. Kind of series: SEC-MALS; room temperature; 100 μl of protein at 1 mg/ml; 50 mM HEPES pH 8, 150 mM NaCl, 5 mM DTT; elution volumes of SEC also told.
Series [3] deals with the molecule itself. As to the kind of experiment: SEC-MALS; room temperature; 100 μl of protein at 1 mg/ml; 50 mM HEPES pH 8, 300 mM NaCl, 1 mM TCEP.
Series [4] has as its target hsMis18β_(56–183), Yippee‐like globular domain of human Mis18β (human, UniProt O43482 56-183). As to the kind of experiment: SEC-MALS; room temperature; 100 μl of protein at 1 mg/ml; 50 mM HEPES pH 8, 150 mM NaCl, 5 mM DTT; elution volumes of SEC also told. The settings on record: both partners purified.

Several values for one entry are separate records, joined by “and”; a condition that tells them apart may be missing. Equal values may be shown once.

Sequence of hsMis18β_(56–183), Yippee‐like globular domain of human Mis18β (O43482 56-183): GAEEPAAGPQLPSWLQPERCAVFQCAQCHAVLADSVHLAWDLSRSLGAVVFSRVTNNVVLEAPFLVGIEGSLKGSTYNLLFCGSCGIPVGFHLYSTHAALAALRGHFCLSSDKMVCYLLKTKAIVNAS

B1: His‐spMis18ΔC (amino acids 1–168) (domain or fragment, Schizosaccharomyces pombe, UniProt Q9P802 1-168, looked up)
chain: MSQTETSHSGYIDFKKESQPSVFQCKKCFQIVGDSNAWVISHREYLSFTLSDAVENSVRVEDTFKRSDDGLCVYSELSCTRCNEVIGKVYNSTPIYLDDIRDMYTFSMDKLQAYQLGNKTVNPEGLTRYQVDLEMREDIIKLKSFCLSLYEKFELHDETLRSVKETIS
In the case of B1, the “stoichiometry N” value in series [1] was 2 and 4.

B2: His‐spMis18_(1–120), N‐terminal Yippee‐like globular domain of S. pombe Mis18 (domain or fragment, Schizosaccharomyces pombe, UniProt Q9P802 1-120, looked up)
chain: MSQTETSHSGYIDFKKESQPSVFQCKKCFQIVGDSNAWVISHREYLSFTLSDAVENSVRVEDTFKRSDDGLCVYSELSCTRCNEVIGKVYNSTPIYLDDIRDMYTFSMDKLQAYQLGNKT
For the molecule B2, the “stoichiometry N” value in series [2] turned out to be 2.

B3: His‐GFP‐spMis18_(C‐term‐α), C‐terminal α‐helical domain of S. pombe Mis18 (domain or fragment, Schizosaccharomyces pombe, UniProt Q9P802 121-194, looked up)
chain: VNPEGLTRYQVDLEMREDIIKLKSFCLSLYEKFELHDETLRSVKETISSLKKPKIEGKEGKKEKARTYSKRTRK
For the molecule B3, in series [2], the “stoichiometry N” value worked out at 3.

B4: His‐GFP‐spMis18fl, recombinant full‐length S. pombe Mis18 (natural protein, Schizosaccharomyces pombe, UniProt Q9P802 1-194, looked up)
chain: MSQTETSHSGYIDFKKESQPSVFQCKKCFQIVGDSNAWVISHREYLSFTLSDAVENSVRVEDTFKRSDDGLCVYSELSCTRCNEVIGKVYNSTPIYLDDIRDMYTFSMDKLQAYQLGNKTVNPEGLTRYQVDLEMREDIIKLKSFCLSLYEKFELHDETLRSVKETISSLKKPKIEGKEGKKEKARTYSKRTRK
As to B4, in series [3], the “stoichiometry N” value is 4 and 2.

B5: His‐hsMis18α_(77–187), Yippee‐like globular domain of human Mis18α (domain or fragment, UniProt Q9NYP9 77-187, looked up)
chain: EERPLVFLCSGCRRPLGDSLSWVASQEDTNCILLRCVSCNVSVDKEQKLSKREKENGCVLETLCCAGCSLNLGYVYRCTPKNLDYKRDLFCLSVEAIESYVLGSSEKQIVS
Take B5: the “stoichiometry N” value was found to be 1 in series [4] and 2 in series [2].
